Results from patent publication US20200397886A1 (University of Washington, published 2020).

Target: T1, I53-50A
T1 construct: Trimeric nanostructure component without antigen, used in the 33% and 66% valency particles; also called I53-50A trimers
T1 chain: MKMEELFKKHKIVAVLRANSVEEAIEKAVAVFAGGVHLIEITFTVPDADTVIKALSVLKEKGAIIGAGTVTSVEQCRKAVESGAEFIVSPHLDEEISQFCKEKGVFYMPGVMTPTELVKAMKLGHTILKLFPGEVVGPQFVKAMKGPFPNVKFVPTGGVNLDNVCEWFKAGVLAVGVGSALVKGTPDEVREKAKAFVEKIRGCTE
Assay: in vitro co-assembly of partial valency particles

B1: I53-50B.4PosT1 (designed binder)
chain: MNQHSHKDHETVRIAVVRARWHAEIVDACVSAFEAAMRDIGGDRFAVDVFDVPGAYEIPLHARTLAETGRYGAVLGTAFVVNGGIYRHEFVASAVINGMMNVQLNTGVPVLSAVLTPHNYDKSKAHTLLFLALFAVKGMEAARACVEILAAREKIAA
notes: Pentameric nanostructure component expressed in E. coli; the N-terminal methionine is said to be optional; also called I53-50B.4PT1; I53-50B.4PT
- binding result: binds
